B1: aCC/GGC (dsDNA)
DNA 1: GTACCCGAGGCAG
DNA 2: CTGCCTCGGGTAC
B2: cCC/GGC (dsDNA)
DNA 1: GTCCCCGAGGCAG
DNA 2: CTGCCTCGGGGAC
B3: CGA (GCC(N3)GGC) (dsDNA)
DNA 1: GTGCCCGAGGCAG
DNA 2: CTGCCTCGGGCAC
B4: GCmC/GGC (dsDNA)
DNA 1: GTGCCCGAGGCAG
DNA 2: CTGCCTCGGGCAC
modifications: methylcytosine at position 5 of strand 1; second strand methylation not stated
B5: GmCC/GGC (dsDNA)
DNA 1: GTGCCCGAGGCAG
DNA 2: CTGCCTCGGGCAC
modifications: methylcytosine at position 4 of strand 1; second strand methylation not stated
B6: cCC/GGg (dsDNA)
DNA 1: GTCCCCGAGGGAG
DNA 2: CTCCCTCGGGGAC
B7: N4 (4 bp spacer) (dsDNA)
DNA 1: GTGCCCGATGGCAG
DNA 2: CTGCCATCGGGCAC
B8: tCC/GGC (dsDNA)
DNA 1: GTTCCCGAGGCAG
DNA 2: CTGCCTCGGGAAC
B9: TGA (dsDNA)
DNA 1: GTGCCTGAGGCAG
DNA 2: CTGCCTCAGGCAC
B10: GCt/GGC (dsDNA)
DNA 1: GTGCTCGAGGCAG
DNA 2: CTGCCTCGAGCAC

How the values were obtained:
Test in all cases: ITC
TFAP2B DBD-HSH WT = TFAP2B DBD-HSH WT (Homo sapiens, UniProt Q92481 219-457)
TFAP2A DBD-HSH WT = TFAP2A DBD-HSH WT (Homo sapiens, UniProt P05549 203-420)
TFAP2B R236C = TFAP2B R236C (Homo sapiens, UniProt Q92481 219-457, R236C)
TFAP2B L284S = TFAP2B L284S (Homo sapiens, UniProt Q92481 219-457, L284S)
TFAP2B K276R = TFAP2B K276R (Homo sapiens, UniProt Q92481 219-457, K276R)
TFAP2B R285Q = TFAP2B R285Q (Homo sapiens, UniProt Q92481 219-457, R285Q)
TFAP2A R217S = TFAP2A R217S (Homo sapiens, UniProt P05549 203-420, R217S)
TFAP2A G262E = TFAP2A G262E (Homo sapiens, UniProt P05549 203-420, G262E)
TFAP2B R300C = TFAP2B R300C (Homo sapiens, UniProt Q92481 219-457, R300C)
TFAP2B V336I = TFAP2B V336I (Homo sapiens, UniProt Q92481 219-457, V336I)
Sequence of TFAP2B V336I (Q92481 219-457 V336I): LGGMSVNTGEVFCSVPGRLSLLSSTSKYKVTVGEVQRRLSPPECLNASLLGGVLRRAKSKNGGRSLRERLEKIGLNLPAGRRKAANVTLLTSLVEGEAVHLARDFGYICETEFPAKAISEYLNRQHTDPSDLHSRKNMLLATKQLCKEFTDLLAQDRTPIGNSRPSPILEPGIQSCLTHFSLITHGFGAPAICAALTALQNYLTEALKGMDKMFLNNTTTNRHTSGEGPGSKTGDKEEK

Sequence of TFAP2A DBD-HSH WT (P05549 203-420): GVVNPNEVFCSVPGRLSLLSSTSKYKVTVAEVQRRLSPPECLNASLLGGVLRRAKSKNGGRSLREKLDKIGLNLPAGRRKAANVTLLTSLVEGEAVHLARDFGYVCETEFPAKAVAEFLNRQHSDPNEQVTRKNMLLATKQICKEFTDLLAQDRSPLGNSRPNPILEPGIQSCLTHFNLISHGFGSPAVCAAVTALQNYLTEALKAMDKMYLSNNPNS
Sequence of TFAP2B DBD-HSH WT (Q92481 219-457): as the sequence (Q92481 219-457 V336I) above, with I118V counted along it
Sequence of TFAP2A R217S (P05549 203-420 R217S): as the sequence (P05549 203-420) above, with R15S counted along it
Sequence of TFAP2B R236C (Q92481 219-457 R236C): as the sequence (Q92481 219-457 V336I) above, with R18C, I118V counted along it
Sequence of TFAP2B R300C (Q92481 219-457 R300C): as the sequence (Q92481 219-457 V336I) above, with R82C, I118V counted along it
Sequence of TFAP2A G262E (P05549 203-420 G262E): as the sequence (P05549 203-420) above, with G60E counted along it
Sequence of TFAP2B K276R (Q92481 219-457 K276R): as the sequence (Q92481 219-457 V336I) above, with K58R, I118V counted along it
Sequence of TFAP2B R285Q (Q92481 219-457 R285Q): as the sequence (Q92481 219-457 V336I) above, with R67Q, I118V counted along it
Sequence of TFAP2B L284S (Q92481 219-457 L284S): as the sequence (Q92481 219-457 V336I) above, with L66S, I118V counted along it

Binder	Kd (TFAP2B DBD-HSH WT) [nM]	Kd (TFAP2A DBD-HSH WT) [nM]	other results
B1	313 ± 69	373 ± 46	
B2	55 ± 7	78 ± 16	
B3	18 ± 2	19 ± 1	binding result (TFAP2B R236C): no binding; binding result (TFAP2B L284S): no binding; Kd (TFAP2B K276R): 382 ± 36 nM; Kd (TFAP2B R285Q): 178 ± 43 nM; binding result (TFAP2A R217S): no binding; Kd (TFAP2A G262E): 129 ± 22 nM; Kd (TFAP2B R300C): 88 ± 20 nM; Kd (TFAP2B V336I): 44 ± 9 nM
B4	126 ± 12	107 ± 3	
B5	299 ± 22	347 ± 3	
B6	355 ± 57	336 ± 53	
B7	340 ± 17	341 ± 20	
B8	248 ± 49	565 ± 87	
B9	19 ± 2	17 ± 1	
B10	461 ± 71	694 ± 71	

Source: article PMC10450164
